From publication PMC5843355, “Evaluation of the Trypanosoma brucei 6-oxopurine salvage pathway as a potential target for drug discovery” (PLoS Neglected Tropical Diseases, 2018)
Several values for one entry are separate records, joined by “and”; a condition that tells them apart may be missing. Equal values may be shown once.

Tests used:
[1] = substrate: Nc1nc2nc[nH]c2c(=O)[nH]1; test: Steady-state kinetic constants of 6-oxopurine bases for HGPRT-I; format: biochemical, Trypanosoma brucei; settings: other: HGPRT-I, PRib-PP 1 mM, pH 8.4, 25°C
Description: The concentration of enzyme in the assay (varied from 75–200 μg/ml for the two enzymes) and the concentration of PRib-PP was kept at 1 mM. The reaction was carried out using a 1.0 cm path length with a UV Visible spectrometer 1601 (Shimadzu) in the reaction buffer (0.1 M Tris, pH 8.4; 0.11 M MgCl2; at 25°C).

[2] = substrate: O=c1[nH]cnc2nc[nH]c12; test: purified protein, by the assay type; settings: PRib-PP 1 mM, pH 8.4, 25°C
[3] = substrate: Nc1nc2nc[nH]c2c(=O)[nH]1; test: purified protein, by the assay type; settings: PRib-PP 1 mM, pH 8.4, 25°C
[4] = substrate: O=c1[nH]c(=O)c2[nH]cnc2[nH]1; test: purified protein, by the assay type; settings: other: HGXPRT, PRib-PP 1 mM, pH 8.4, 25°C

B1: HGPRT-I (Trypanosoma brucei brucei) (protein)
chain: EPACKYDFATSVLFTEAELHTRMRGVAQRIADDYSNCNLKPLENPLVIVSVLKGSFVFTADMVRILGDFGVPTRVEFLRASSYGHDTKSCGRVDVKADGLCDIRGKHVLVLEDILDTALTLREVVDSLKKSEPASIKTLVAIDKPGGRKIPFTAEYVVADVPNVFVVGYGLDYDQSYREVRDVVILKPSVYETWGKELERRKAAGEAKR
notes: 6x His-tag (N); AcTEV cleavage site (N); made in house; host or cells: E. coli One Shot BL21(DE3)
B1 was tested, and the Km [1] was 16 µM and 15.9 ± 4.8 µM, the kcat [1] was 0.38 s⁻¹ and the kcat/Km [1] was 20000 M⁻¹ s⁻¹. It also gave a Km ([2]; other: HGPRT-I) of 13.7 ± 2.9 µM.

B2: HGXPRT (Trypanosoma brucei brucei TREU927) (protein)
chain: HSGHPLKPNFVGRDADGNVTVDGRSYPMAESVVATESTIHRSMKEMAQTLANAYKTLKHRDTHNKGNSALAPITDENPLIIISVLKGSYIFTADMVRYLGDCGLPNVVDFIRITSYRGTTKSSGTVQVLDNLRFTELTGKHVLIMEDIADTGRTMKLLVEKIRREYRPASLKVCVLVDKPGGRVVDFKPEFVCLTAPTRYVVGYGFEVNDRYRNYRHVFVLKPEYAKRYPSKL
B2 showed a Km ([3]; other: HGXPRT) of 32 ± 4.8 µM, a Km [4] of 31.9 ± 7.5 µM and a kcat [4] of 3.66 s⁻¹. The kcat/Km [4] was 110000 M⁻¹ s⁻¹, the Km ([2]; other: HGXPRT) was 30.6 ± 7.8 µM and the kcat ([2]; other: HGXPRT) was 2.4 s⁻¹. For the same protein, the kcat/Km ([2]; other: HGXPRT) was 80000 M⁻¹ s⁻¹.

B3: HGPRT-II (Trypanosoma brucei brucei TREU927) (protein)
chain: EPACKYDFATSVLFTEAELHTRMRGVAQRIADDYSNCNLKPLENPLVVVSVLRGSFVFTADMVRILGDFGVPTRVEFLRASSYGHDTKSCGRVDVKADGLCDIRGKHVLVLEDILDTALTLREVVDSLKKSEPASIKTLVAIDKPGGRKIPFTAEYVVADVPNVFVVGYGLDYDQSYREVRDVVILKPSVYETWGKELERRKAAVKAKL
In the case of B3, the Km ([3]; other: HGPRT-II) is reported as 7.1 ± 1.8 µM, the Km ([2]; other: HGPRT-II) is reported as 4.2 ± 0.9 µM and the kcat ([2]; other: HGPRT-II) is reported as 0.03 s⁻¹. The kcat/Km ([2]; other: HGPRT-II) was 7000 M⁻¹ s⁻¹.
